Data set [1] concerns the target T1, PpMYB8 (Pinus pinaster, UniProt D7GLD4 1-534). As to the kind of experiment: EMSA; EMSA buffer, salt, pH and temperature not given in material (electrophoresis as in Rueda-López et al. 2008). Conditions: protein: recombinant; label: 5'-biotin.
The target of data set [2] is T1, PpMYB8. As to the kind of experiment: EMSA; shift reduced by unlabeled probe; EMSA buffer, salt, pH and temperature not given in material (electrophoresis as in Rueda-López et al. 2008). The note with it: protein: recombinant; label: 5'-biotin. (A gel shift assay detects complexes by their altered migration in electrophoresis.)

T1 sequence (D7GLD4 entry or part of it): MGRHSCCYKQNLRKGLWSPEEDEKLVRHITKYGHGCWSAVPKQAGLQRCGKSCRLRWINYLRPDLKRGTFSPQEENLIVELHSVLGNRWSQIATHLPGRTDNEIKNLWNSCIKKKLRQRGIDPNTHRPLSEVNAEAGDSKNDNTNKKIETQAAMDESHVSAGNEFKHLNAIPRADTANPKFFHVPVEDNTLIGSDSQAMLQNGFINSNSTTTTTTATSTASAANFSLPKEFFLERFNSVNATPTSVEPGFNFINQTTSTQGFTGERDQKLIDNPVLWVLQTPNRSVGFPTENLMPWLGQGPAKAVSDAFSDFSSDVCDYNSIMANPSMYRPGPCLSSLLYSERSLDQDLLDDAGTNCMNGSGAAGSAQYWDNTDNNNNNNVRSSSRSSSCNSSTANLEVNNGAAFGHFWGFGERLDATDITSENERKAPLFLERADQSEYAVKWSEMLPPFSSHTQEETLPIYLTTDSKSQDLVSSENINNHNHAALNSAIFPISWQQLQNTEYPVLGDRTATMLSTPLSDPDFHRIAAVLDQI

B1: probe A1 (PADT-A 225-329) (dsDNA)
DNA 1: TAACTTGCGCGGGTGTTTACACACCTAACCACTCCGGAGCTTCCATGCTTCATCCACGAGTCAGAGGGGCCTTTCCTCCAACCACCCTAGATCAGCATGAGCTAT
DNA 2: ATAGCTCATGCTGATCTAGGGTGGTTGGAGGAAAGGCCCCTCTGACTCGTGGATGAAGCATGGAAGCTCCGGAGTGGTTAGGTGTGTAAACACCCGCGCAAGTTA
Take B1: in data set [1], the binding result is “no binding”.

B2: probe D2 (PADT-D 192-318) (dsDNA)
DNA 1: GCTGGTGAGAAGGGCCAAACCAAAAAAAAACCAAACGAAATCACAGCGTACGATCTAACTAACCGTGTTGAATAGTCCCGTGACGTAGCCGCCGTAATGTGCAACAACCCACCATGGGATGGAGCAG
DNA 2: CTGCTCCATCCCATGGTGGGTTGTTGCACATTACGGCGGCTACGTCACGGGACTATTCAACACGGTTAGTTAGATCGTACGCTGTGATTTCGTTTGGTTTTTTTTTGGTTTGGCCCTTCTCACCAGC
In the case of B2, the binding result in data set [1] is “no binding”.

B3: probe A2 (PADT-A 281-370) (dsDNA)
DNA 1: ACAACAGACTGGTAAGGCACACGTGCTTCCACGAGATCCACTAACTTGCGCGGGTGTTTACACACCTAACCACTCCGGAGCTTCCATGCT
DNA 2: AGCATGGAAGCTCCGGAGTGGTTAGGTGTGTAAACACCCGCGCAAGTTAGTGGATCTCGTGGAAGCACGTGTGCCTTACCAGTCTGTTGT
For the molecule B3, the binding result in data set [2] was “binds”.

For the origin of these results see article PMC7260716, “Transcriptional analysis of arogenate dehydratase genes identifies a link between phenylalanine biosynthesis and lignin biosynthesis”.
